Source: patent US20220153796A1

molecular target: HLA-B*44 (human); test: UV peptide exchange ELISA

Row | peptide exchange yield | Binder
1 | 20 to 50% | TEFPIIKMY
2 | 50 to 75% | AEDQLHHSF
3 | > 75% | SEIGKAVGF
4 | 50 to 75% | SEDDPILQI

molecular target: HLA-B*08 (human); test: UV peptide exchange ELISA

Row | peptide exchange yield | Binder
5 | 50 to 75% | DAIQRKYSC
6 | 50 to 75% | HLLQKQTSI
7 | > 75% | LVKVKVLL
8 | > 75% | ILLPRTVSL
9 | 50 to 75% | VIKEKALTL
10 | > 75% | MLKQKVEEL
11 | > 75% | LPFPKFTV
12 | > 75% | EAMLRNKEL

The next lines start with the binder.

Row | Binder | peptide exchange yield
13 | MPMQDIKM | > 75%
14 | EIRIRVVQM | > 75%
15 | LPPKKFVL | > 75%
16 | ELKKLYCQI | > 75%
17 | MAQFKEISL | > 75%
18 | ILKVKVGL | > 75%
19 | ALKLRVAVL | > 75%
20 | DIYQRALNL | > 75%
21 | FNKRKPLSL | 50 to 75%
22 | YMHKLLVL | > 75%
23 | VASPKHCVL | 50 to 75%
24 | EAAIRSVEL | > 75%
25 | ELKKKEYEEL | > 75%
26 | RAQLKLVAL | > 75%
27 | AIISRLVAL | > 75%
